PMC6533308, “In vitro NTPase activity of highly purified Pdr5, a major yeast ABC multidrug transporter” (Scientific Reports, 2019)

Legend:
Pdr5 [1] = target: T1, Pdr5 (Saccharomyces cerevisiae, UniProt P33302); experiment: inhibition of ATPase, colorimetric phosphate release; assay type: biochemical
T1 construct: full-length, N-terminal 14x His tag with protease cleavage site; homologous expression in S. cerevisiae (pdr1-3), solubilized and purified in trans-PCC-α-M by IMAC and SEC
Description: inhibition of ATPase, colorimetric phosphate release on Pdr5

Pdr5 [2] = target: T1, Pdr5; experiment: enzyme-coupled (PK/LDH, NADH) ATPase assay; assay type: biochemical; conditions: 4 mM ATP, 5 mM MgCl2, 300 mM Tris-glycine pH 8, 30 °C, 0.004% trans-PCC-α-M
[3] = tested on: Nc1ccn([C@@H]2O[C@H](COP(=O)(O)OP(=O)(O)OP(=O)(O)O)[C@@H](O)[C@H]2O)c(=O)n1; experiment: purified protein; conditions: 10 mM MgCl2, 300 mM Tris-glycine pH 9.5, 0.004% trans-PCC-α-M, 20 min, 0-5 mM NTP
[4] = tested on: Nc1nc2c(ncn2[C@@H]2O[C@H](COP(=O)(O)OP(=O)(O)OP(=O)(O)O)[C@@H](O)[C@H]2O)c(=O)[nH]1; experiment: purified protein; conditions: 10 mM MgCl2, 300 mM Tris-glycine pH 9.5, 0.004% trans-PCC-α-M, 20 min, 0-5 mM NTP
[5] = tested on: Nc1ncnc2c1ncn2[C@@H]1O[C@H](COP(=O)(O)OP(=O)(O)OP(=O)(O)O)[C@@H](O)[C@H]1O; experiment: purified protein; conditions: 10 mM MgCl2, 300 mM Tris-glycine pH 9.5, 0.004% trans-PCC-α-M, 20 min, 0-5 mM NTP
[6] = tested on: O=c1ccn([C@@H]2O[C@H](COP(=O)(O)OP(=O)(O)OP(=O)(O)O)[C@@H](O)[C@H]2O)c(=O)[nH]1; experiment: purified protein; conditions: 10 mM MgCl2, 300 mM Tris-glycine pH 9.5, 0.004% trans-PCC-α-M, 20 min, 0-5 mM NTP

T1 sequence (P33302 whole entry): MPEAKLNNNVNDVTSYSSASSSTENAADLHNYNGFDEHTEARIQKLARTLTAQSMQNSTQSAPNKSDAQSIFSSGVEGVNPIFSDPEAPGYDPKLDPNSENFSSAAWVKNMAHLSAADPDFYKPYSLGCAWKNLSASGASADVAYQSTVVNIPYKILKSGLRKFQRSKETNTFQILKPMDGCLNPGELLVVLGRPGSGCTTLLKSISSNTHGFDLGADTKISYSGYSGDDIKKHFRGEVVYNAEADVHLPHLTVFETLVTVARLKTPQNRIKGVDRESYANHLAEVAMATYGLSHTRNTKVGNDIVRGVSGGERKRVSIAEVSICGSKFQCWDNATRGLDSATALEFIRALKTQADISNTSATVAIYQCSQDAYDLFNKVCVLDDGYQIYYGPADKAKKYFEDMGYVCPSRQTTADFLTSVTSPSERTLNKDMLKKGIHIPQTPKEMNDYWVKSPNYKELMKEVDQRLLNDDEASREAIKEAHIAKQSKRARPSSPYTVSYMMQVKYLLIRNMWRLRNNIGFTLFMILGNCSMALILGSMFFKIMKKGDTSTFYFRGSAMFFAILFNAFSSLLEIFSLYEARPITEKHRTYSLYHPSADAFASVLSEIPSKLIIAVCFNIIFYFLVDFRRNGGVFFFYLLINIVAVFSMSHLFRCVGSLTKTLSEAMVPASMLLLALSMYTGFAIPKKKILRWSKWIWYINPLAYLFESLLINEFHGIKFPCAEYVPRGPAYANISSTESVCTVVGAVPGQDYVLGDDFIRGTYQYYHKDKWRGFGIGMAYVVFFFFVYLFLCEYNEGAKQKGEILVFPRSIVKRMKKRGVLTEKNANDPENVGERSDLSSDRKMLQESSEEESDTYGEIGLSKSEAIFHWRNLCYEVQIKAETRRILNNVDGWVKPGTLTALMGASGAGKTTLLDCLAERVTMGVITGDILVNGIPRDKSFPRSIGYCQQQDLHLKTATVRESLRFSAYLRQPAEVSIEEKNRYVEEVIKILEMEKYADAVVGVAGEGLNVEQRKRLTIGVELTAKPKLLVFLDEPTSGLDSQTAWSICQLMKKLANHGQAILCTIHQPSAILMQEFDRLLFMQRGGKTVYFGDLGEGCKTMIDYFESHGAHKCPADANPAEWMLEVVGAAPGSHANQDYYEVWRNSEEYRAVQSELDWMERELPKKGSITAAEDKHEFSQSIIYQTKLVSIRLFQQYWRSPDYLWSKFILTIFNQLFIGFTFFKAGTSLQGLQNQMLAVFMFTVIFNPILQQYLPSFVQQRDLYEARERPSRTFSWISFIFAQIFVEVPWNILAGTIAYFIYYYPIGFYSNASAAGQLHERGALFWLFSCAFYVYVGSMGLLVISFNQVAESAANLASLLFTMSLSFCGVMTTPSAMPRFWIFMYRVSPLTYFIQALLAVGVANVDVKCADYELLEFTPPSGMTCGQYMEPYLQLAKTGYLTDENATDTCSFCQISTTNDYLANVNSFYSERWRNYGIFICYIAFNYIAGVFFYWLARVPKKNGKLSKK

For `CCN=c1cc2oc3cc(NCC)c(C)cc3c(-c3ccccc3C(=O)OCC)c-2cc1C` [rhodamine 6 G], the Ki (Pdr5 [1]) was 3.2 ± 0.2 µM.
`Nc1ncnc2c1ncn2[C@@H]1O[C@H](COP(=O)(O)O)[C@@H](O)[C@H]1O` [AMP] was tested, and the “maximum inhibition at 2 mM AMP” value (Pdr5 [2]) was ~ 20%.
Compound `CC(=O)N1CCN(c2ccc(OCC3COC(Cn4ccnc4)(c4ccc(Cl)cc4Cl)O3)cc2)CC1` (stereo not drawn) [ketoconazole] has a Ki (Pdr5 [1]) of 22.7 ± 2.1 µM.
Pdr5 (Saccharomyces cerevisiae S288C) gave a Km [3] of 1620 ± 250 µM, a Vmax [3] of 0.385 µmol/min/mg and a Vmax/Km [3] of 200 µL/min/mg. It also gave a Km [4] of 1610 ± 300 µM, a Vmax [4] of 0.106 µmol/min/mg and a Vmax/Km [4] of 100 µL/min/mg. The Km [5] was 440 ± 50 µM, the Vmax [5] was 0.208 µmol/min/mg and the Vmax/Km [5] was 500 µL/min/mg. It also gave a Km [6] of 590 ± 110 µM, a Vmax [6] of 0.0646 µmol/min/mg and a Vmax/Km [6] of 100 µL/min/mg.
